Biological target: T1, hPD-L1-His (human, UniProt Q9NZQ7 19-238)
T1 construct: Bought protein; also called hPD-L1-His (manufactured by Edison); not shown: His tag
Experiment: SPR (Biacore T200), antibody on Protein A chip, hPD-L1-His injected, 1:1 fit
Description: Subsequently, the binding affinity of the anti-PD-L1 chimeric antibody, humanized antibody, and marketed control antibody to hPD-L1-His (manufactured by Edison) were determined by surface plasmon resonance (Biacore T200 biosensor, Biacore, INC, Piscataway N.J.) equipped with pre-immobilized Protein A sensor chips.
The detection results were read after the chip was regenerated with pH 2.0 glycine (30 μl/min, 10-20 s). Kinetic association rates (kon) and dissociation rates (koff) were obtained simultaneously by fitting the data globally to a 1:1 Langmuir binding model (Karlsson, R. Roos, H. Fagerstam, L. Petersson, B., 1994. Methods Enzymology 6. 99-110) using Biacore T200 Evaluation Software 3.0. Affinities were deduced from the quotient of the kinetic rate constants (KD=koff/kon).

T1 sequence (Q9NZQ7 19-238 limits assumed): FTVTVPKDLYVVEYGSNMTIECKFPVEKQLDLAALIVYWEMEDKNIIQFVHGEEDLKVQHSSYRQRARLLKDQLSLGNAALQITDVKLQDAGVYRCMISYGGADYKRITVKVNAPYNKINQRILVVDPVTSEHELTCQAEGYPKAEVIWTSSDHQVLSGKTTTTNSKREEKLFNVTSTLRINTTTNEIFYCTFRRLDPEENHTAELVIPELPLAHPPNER

Row | Kd | koff | kon | Binder
1 | 266 pM | 0.00043 s⁻¹ | 1.62e+06 M⁻¹ s⁻¹ | 08-3F2-mHvKv-IgG1 (antibody, V domains shown) VH: DVQLQESGPDLVKPSQTLSLTCTVTGYSITSGYNWHWIRQFPGNKLEWMGYIHHSSITNYNPSLKSRISITRDTSKNQFFLQLSSVTTEDTATFYCAREGYDYDWFAYWGQGTLVTVSA VL: DIVLAQSPATLSVTPGDSVSLSCRASQSISNNLHWYQQKSHESPRLLIKYASQSISGIPSRFSGSGSGTDFTLSINSVETEDFGMYFCQQSKSWPFTFGSGTRLEIK
2 | 810 pM | 0.000946 s⁻¹ | 1.17e+06 M⁻¹ s⁻¹ | 3F2-H2K2-IgG1 (antibody, V domains shown) VH: DVQLQESGPGLVKPSETLSLTCTVSGYSITSGYNWHWIRQFPGNGLEWMGYIHHSSITNYNPSLKSRITISRDTSKNQFSLKLSSVTAADTATFYCAREGYDYDWFAYWGQGTLVTVSS VL: DIVLTQSPDFQSVTPKEKVTLSCRASQSISNNLHWYQQKPDESPKLLIKYASQSISGIPSRFSGSGSGTDFTLTINSVEAEDFAMYFCQQSKSWPFTFGQGTRLEIK
3 | 475 pM | 0.000617 s⁻¹ | 1.3e+06 M⁻¹ s⁻¹ | 3F2-H4K2-IgG1 (antibody, V domains shown) VH: DVQLQESGPGLVKPSETLSLTCTVSGYSITSGYNWHWIRQFPGNKLEWMGYIHHSSITNYNPSLKSRITISRDTSKNQFFLQLSSVTAEDTATFYCAREGYDYDWFAYWGQGTLVTVSS VL: DIVLTQSPDFQSVTPKEKVTLSCRASQSISNNLHWYQQKPDESPKLLIKYASQSISGIPSRFSGSGSGTDFTLTINSVEAEDFAMYFCQQSKSWPFTFGQGTRLEIK
4 | 471 pM | 0.000626 s⁻¹ | 1.33e+06 M⁻¹ s⁻¹ | 3F2-H4K1-IgG1 (antibody, V domains shown) VH: DVQLQESGPGLVKPSETLSLTCTVSGYSITSGYNWHWIRQFPGNKLEWMGYIHHSSITNYNPSLKSRITISRDTSKNQFFLQLSSVTAEDTATFYCAREGYDYDWFAYWGQGTLVTVSS VL: DIVLTQSPDFQSVTPKEKVTITCRASQSISNNLHWYQQKPDESPKLLIKYASQSISGIPSRFSGSGSGTDFTLTINSVEAEDFAMYFCQQSKSWPFTFGQGTRLEIK
5 | 690 pM | 0.000732 s⁻¹ | 1.06e+06 M⁻¹ s⁻¹ | 3F2-H1K2-IgG1 (antibody, V domains shown) VH: QVQLQESGPGLVKPSETLSLTCTVSGYSITSGYNWHWIRQFPGNGLEWMGYIHHSSITNYNPSLKSRITISRDTSKNQFSLKLSSVTAADTATYYCAREGYDYDWFAYWGQGTLVTVSS VL: DIVLTQSPDFQSVTPKEKVTLSCRASQSISNNLHWYQQKPDESPKLLIKYASQSISGIPSRFSGSGSGTDFTLTINSVEAEDFAMYFCQQSKSWPFTFGQGTRLEIK
6 | 625 pM | 0.000827 s⁻¹ | 1.32e+06 M⁻¹ s⁻¹ | 3F2-H3K3-IgG1 (antibody, V domains shown) VH: DVQLQESGPGLVKPSETLSLTCTVSGYSITSGYNWHWIRQFPGNGLEWMGYIHHSSITNYNPSLKSRITISRDTSKNQFSLKLSSVTAEDTATFYCAREGYDYDWFAYWGQGTLVTVSS VL: DIVLTQSPDTQSVTPKESVTLSCRASQSISNNLHWYQQKSHESPKLLIKYASQSISGIPSRFSGSGSGTDFTLTINSVEAEDFAMYFCQQSKSWPFTFGQGTRLEIK
7 | 787 pM | 0.000772 s⁻¹ | 981000 M⁻¹ s⁻¹ | 3F2-H1K1-IgG1 (antibody, V domains shown) VH: QVQLQESGPGLVKPSETLSLTCTVSGYSITSGYNWHWIRQFPGNGLEWMGYIHHSSITNYNPSLKSRITISRDTSKNQFSLKLSSVTAADTATYYCAREGYDYDWFAYWGQGTLVTVSS VL: DIVLTQSPDFQSVTPKEKVTITCRASQSISNNLHWYQQKPDESPKLLIKYASQSISGIPSRFSGSGSGTDFTLTINSVEAEDFAMYFCQQSKSWPFTFGQGTRLEIK
8 | 623 pM | 0.000753 s⁻¹ | 1.21e+06 M⁻¹ s⁻¹ | 3F2-H3K2-IgG1 (antibody, V domains shown) VH: DVQLQESGPGLVKPSETLSLTCTVSGYSITSGYNWHWIRQFPGNGLEWMGYIHHSSITNYNPSLKSRITISRDTSKNQFSLKLSSVTAEDTATFYCAREGYDYDWFAYWGQGTLVTVSS VL: DIVLTQSPDFQSVTPKEKVTLSCRASQSISNNLHWYQQKPDESPKLLIKYASQSISGIPSRFSGSGSGTDFTLTINSVEAEDFAMYFCQQSKSWPFTFGQGTRLEIK
9 | 700 pM | 0.000792 s⁻¹ | 1.13e+06 M⁻¹ s⁻¹ | 3F2-H2K1-IgG1 (antibody, V domains shown) VH: DVQLQESGPGLVKPSETLSLTCTVSGYSITSGYNWHWIRQFPGNGLEWMGYIHHSSITNYNPSLKSRITISRDTSKNQFSLKLSSVTAADTATFYCAREGYDYDWFAYWGQGTLVTVSS VL: DIVLTQSPDFQSVTPKEKVTITCRASQSISNNLHWYQQKPDESPKLLIKYASQSISGIPSRFSGSGSGTDFTLTINSVEAEDFAMYFCQQSKSWPFTFGQGTRLEIK
10 | 758 pM | 0.000881 s⁻¹ | 1.16e+06 M⁻¹ s⁻¹ | 3F2-H2K3-IgG1 (antibody, V domains shown) VH: DVQLQESGPGLVKPSETLSLTCTVSGYSITSGYNWHWIRQFPGNGLEWMGYIHHSSITNYNPSLKSRITISRDTSKNQFSLKLSSVTAADTATFYCAREGYDYDWFAYWGQGTLVTVSS VL: DIVLTQSPDTQSVTPKESVTLSCRASQSISNNLHWYQQKSHESPKLLIKYASQSISGIPSRFSGSGSGTDFTLTINSVEAEDFAMYFCQQSKSWPFTFGQGTRLEIK
11 | 805 pM | 0.000874 s⁻¹ | 1.09e+06 M⁻¹ s⁻¹ | 3F2-H1K3-IgG1 (antibody, V domains shown) VH: QVQLQESGPGLVKPSETLSLTCTVSGYSITSGYNWHWIRQFPGNGLEWMGYIHHSSITNYNPSLKSRITISRDTSKNQFSLKLSSVTAADTATYYCAREGYDYDWFAYWGQGTLVTVSS VL: DIVLTQSPDTQSVTPKESVTLSCRASQSISNNLHWYQQKSHESPKLLIKYASQSISGIPSRFSGSGSGTDFTLTINSVEAEDFAMYFCQQSKSWPFTFGQGTRLEIK
12 | 699 pM | 0.000793 s⁻¹ | 1.13e+06 M⁻¹ s⁻¹ | 3F2-H3K1-IgG1 (antibody, V domains shown) VH: DVQLQESGPGLVKPSETLSLTCTVSGYSITSGYNWHWIRQFPGNGLEWMGYIHHSSITNYNPSLKSRITISRDTSKNQFSLKLSSVTAEDTATFYCAREGYDYDWFAYWGQGTLVTVSS VL: DIVLTQSPDFQSVTPKEKVTITCRASQSISNNLHWYQQKPDESPKLLIKYASQSISGIPSRFSGSGSGTDFTLTINSVEAEDFAMYFCQQSKSWPFTFGQGTRLEIK
13 | 502 pM | 0.000696 s⁻¹ | 1.39e+06 M⁻¹ s⁻¹ | 3F2-H4K3-IgG1 (antibody, V domains shown) VH: DVQLQESGPGLVKPSETLSLTCTVSGYSITSGYNWHWIRQFPGNKLEWMGYIHHSSITNYNPSLKSRITISRDTSKNQFFLQLSSVTAEDTATFYCAREGYDYDWFAYWGQGTLVTVSS VL: DIVLTQSPDTQSVTPKESVTLSCRASQSISNNLHWYQQKSHESPKLLIKYASQSISGIPSRFSGSGSGTDFTLTINSVEAEDFAMYFCQQSKSWPFTFGQGTRLEIK
14 | 3570 pM | 0.0009 s⁻¹ | 252000 M⁻¹ s⁻¹ | 07-6A11-mHvKv-IgG1 (antibody, V domains shown) VH: DVQLVESGGGLVQPGGSRKLSCAASGFTFSSFGMHWVRQAPEKGLEWVAYISSGSNTIYYADTVKGRFTISRDNPKNTLFLQMTSLRSEDTAIYYCTRNGYDGWYAMDYWGQGTSVTVSS VL: QIVLTQSPAIMSASPGEKVTMTCSASSSVSYIHWFQQKSGTSPKRWIYDTSKLASGVPARFSGRGSGTSYSLTISSMEAEDAATYYCQQWSTNPFTFGSGTKLEIK
15 | 5330 pM | 0.000805 s⁻¹ | 151000 M⁻¹ s⁻¹ | 17-7E4-mHvKv-IgG1 (antibody, V domains shown) VH: QVQLQQSGAELVRPGVSVKISCKGSGFKFTDYAIHWVKQSHAKSLEWIGVISIYYGEASYNQKFKDKATLTVDTSSSTAYMELARLTSEDSAIYYCAREDYYGSSSYFDYWGQGTALTVSS VL: not shown

From patent US20220073621A1 (EUCURE BEIJING BIOPHARMA, published 2022)
